Experimental data: the supplement of paper PMC12042874
± gives the uncertainty stated by the source.

Assay: amyloid nucleation score (Sup35N fusion, yeast selection) (log enrichment); library NNK1; higher = more nucleation; inactive = no reads after selection
Method in brief: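 DiMSum was used to calculate nucleation scores as log enrichment of output over input reads, centred on the mode score of non-aggregating sequences. Sequences with fewer than 100 input reads were not scored. Input and output came from Illumina sequencing of plasmid inserts in psi-negative yeast expressing peptides of 20 random codons fused to Sup35N, induced 24 hours with 100 μM copper sulfate and then grown 7 days at 30°C on medium lacking adenine and uracil.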

| Substance | amyloid nucleation score |
| --- | --- |
| VQNKYRFTLY | 1.65 ± 0.33 |
| VQNTWVILRKL | 4.43 ± 0.095 |
| VRCNGDLQDKYRISFCNKSR | 0.01 ± 1.2 |
| VREYMTFQDMYLSGVSTVTL | 1.08 ± 0.61 |
| VRHSAIRGLHWSGRILRCGV | 1.01 ± 1.1 |
| VRLAL | -0.27 ± 0.26 |
| VRLMQIWGV | -0.5 ± 2.1 |
| VRLMSTAMLRRLELVLYST | 0.539 ± 0.32 |
| VRNKMGSRSYSTS | -1.65 ± 2.7 |
| VRQSGLCIKWEVTRRAKRSV | 0.699 ± 0.85 |
| VRSNRMTAGTGYWGNSTVKD | -0.65 ± 0.56 |
| VRTFWCYCTWPASRYR | -0.001 ± 0.51 |
| VRTSYFVAGSGSNAWGGENE | -0.956 ± 0.99 |
| VRVNRLSFLNNALLFWLFAK | 2.3 ± 0.1 |
| VSASLDGPLSVRKGTSKAWD | -0.043 ± 1.4 |
| VSCQQTFASLFFGILAGKSI | -0.006 ± 0.54 |
| VSDFGLGHGKQWRCRRQISL | 0.685 ± 0.79 |
| VSEIN | 2.23 ± 0.57 |
| VSFLASMLRIGMCLPKQVMW | 0.183 ± 0.8 |
| VSFNTFYRRSFPFQLRTTSV | 0.329 ± 0.29 |
| VSFRMVLNYLQVGYSWGHWR | 0.395 ± 0.44 |
| VSGRVGKNAGITGM | 0.813 ± 1.1 |

| Substance | amyloid nucleation score |
| --- | --- |
| VSIGIISII | -0.663 ± 1.6 |
| VSIIE | -0.127 ± 0.4 |
| VSILSRI | -0.842 ± 0.61 |
| VSINGGEYMSEFAGICGPVD | 1.83 ± 0.46 |
| VSKLICVFTGSYRNLEGYRI | 0.041 ± 0.39 |
| VSLLVSICLLRLSLVSI | 0.259 ± 0.58 |
| VSLRTISWNMLLNDCWHVKM | 0.176 ± 0.72 |
| VSMFRRVASEALYRQPSMLA | 0.972 ± 0.36 |
| VSMHWSISRCIC | 0.772 ± 0.43 |
| VSNTHVNGGWSRRNGQWLGV | -0.708 ± 0.45 |
| VSPLWSCFTSGVPTDCWSLG | 0.275 ± 1.2 |
| VSQSETCPGV | 0.433 ± 0.53 |
| VSRLEVPRFLCTLQSTLLSS | -0.123 ± 0.86 |
| VSRMGVGTIRTQVHGIRGGT | -0.522 ± 1.6 |
| VSRVTASYRFIFNYYEMDTS | inactive |
| VSTYRRDIMLHVITIENKLT | 2.29 ± 0.6 |
| VSVNRVFFVSWAISKTIS | -0.689 ± 0.55 |
| VSWENPSINLRRADLPCPLF | 0.521 ± 0.57 |
| VSWHHLVLLKGRLLEVSLSS | -0.158 ± 0.28 |
| VSYKTGIWGVSCDIDGVY | -0.182 ± 0.24 |
| VSYTVSFSFFLFLFNWHSYV | 0.147 ± 0.65 |
| VTACYYSISFCVRGAMYGYV | 1.38 ± 0.33 |

| Substance | amyloid nucleation score |
| --- | --- |
| VTFFHFSQGR | 4.79 ± 0.057 |
| VTFHLEARLAGLDLMGYSTS | 0.835 ± 0.53 |
| VTFWHVFLIFSYLSTCAWWW | -0.382 ± 1.2 |
| VTGWFYAGILYAFLYSQVLF | 0.171 ± 1.2 |
| VTHVFYAVLGGMRMGLNFPT | -0.192 ± 0.4 |
| VTLSIYVNNSDGISR | 0.588 ± 0.4 |
| VTMSDLATHNYREMNSLFSF | 0.091 ± 0.28 |
| VTNPNYP | -0.696 ± 0.65 |
| VTQFSVWLVLRICGLTLRWY | 0.31 ± 1 |
| VTSLCYRNFFGVVEVLRYCQ | 0.677 ± 0.51 |
| VTWVWFGVLVCFRRDGTLTY | 0.676 ± 0.85 |
| VVDEVNTGNHDLTTSLLQLS | -0.435 ± 0.68 |
| VVHHEDYMRLGC | -0.948 ± 1.4 |
| VVLCGDCFSLSLFWDCLWPF | 4.38 ± 0.078 |
| VVMEMINFHPSTLCSILQ | 5.07 ± 0.11 |
| VVNVQMNQPYMQCFPQDTR | 3.93 ± 0.082 |
| VVPFRLLDIQRNGCFDHGYP | 0.142 ± 1.4 |
| VVPPRTDSE | -0.364 ± 0.46 |
| VVRDRNYPFYLIIGRSVVLG | 5.16 ± 0.061 |
| VVSYISPATLRTLKLEKGLS | 0.029 ± 0.76 |
| VVSYWTHYPNKSLSWASWAA | -0.671 ± 1.2 |
| VVVFDKR | -0.041 ± 1 |

| Substance | amyloid nucleation score |
| --- | --- |
| VVVVMRR | 1.94 ± 0.23 |
| VWFPKTDTGVTS | 0.428 ± 0.34 |
| VWLSMEFLCVYTCMPCWSQL | -0.423 ± 0.55 |
| VWRADMCSHS | -0.17 ± 0.53 |
| VWRLSI | -0.557 ± 0.41 |
| VWRTQMFRV | 0.37 ± 1.1 |
| VWVLPRDNVFSIKNYMSFS | 6.965 ± 0.045 |
| VYAILKDFFYFFGVNFFCCF | 4.18 ± 0.06 |
| VYASLTL | -1.26 ± 1.7 |
| VYLSYVFMYS | -0.445 ± 0.36 |
| VYMRISFNEVMCFVCDTGSW | 7.485 ± 0.046 |
| VYMRNKEQVNIGHDTVNLSL | 0.58 ± 0.43 |
| VYRIWSSSGNYKEVYAHRAL | 0.947 ± 0.93 |
| VYYYVLSLV | 0.207 ± 1.4 |
| WADNNTSH | -0.094 ± 0.34 |
| WCLGMWLLHVLTTETTFKCT | -0.158 ± 0.34 |
| WEKFIVAQIMVGHFGWVFQT | 5.36 ± 0.078 |
| WEKNFKIGESRCSV | -0.554 ± 1.1 |
| WELARVDCNWFSHFWHAYMR | inactive |
| WESSGFQMICRSFSFNMFSS | -0.458 ± 0.52 |
| WEVRGHPSGLMEVRDLGVRF | 0.249 ± 0.59 |
| WFARNTLLEWEN | -1.57 ± 2.1 |
